Assay results published in patent US20090130105A1 (Biogen, published 2009).

B1: M13-C06 antibody (antibody, V domains shown)
VH: EVQLLESGGGLVQPGGSLRLSCAASGFTFSIYRMQWVRQAPGKGLEWVSGISPSGGTTWYADSVKGRFTISRDNSKNTLYLQMNSLRAEDTAVYYCARWSGGSGYAFDIWGQGTMVTVSS
VL: DIQMTQSPLSLSASVGDRVTITCQASRDIRNYLNWYQQKPGKAPKLLIYDASSLQTGVPSRFGGSGSGTDFSFTIGSLQPEDIATYYCQQFDSLPHTFGQGTKLEIK
notes: Fully human full-length antibody (ATCC PTA-7444); also called M13.C06.G4.P.agly; M13-C06.G4P.agly
B2: M13-C06 Fab (Fab, V domains shown)
VH: B1 VH
VL: B1 VL
notes: Fab made by enzymatic digestion of the IgG

How the values were obtained:
[1] = target: T1, human IGF-1R on H322M non-small cell lung cancer cells (human, UniProt P08069 31-1367); experiment: flow cytometry on H322M cells, anti-human Fab PE secondary (FIG. 55A)
T1 construct: Endogenous receptor of the tumor cell line; also called cell surface IGF-1R
T1 sequence (P08069 31-1367, stated change not applied): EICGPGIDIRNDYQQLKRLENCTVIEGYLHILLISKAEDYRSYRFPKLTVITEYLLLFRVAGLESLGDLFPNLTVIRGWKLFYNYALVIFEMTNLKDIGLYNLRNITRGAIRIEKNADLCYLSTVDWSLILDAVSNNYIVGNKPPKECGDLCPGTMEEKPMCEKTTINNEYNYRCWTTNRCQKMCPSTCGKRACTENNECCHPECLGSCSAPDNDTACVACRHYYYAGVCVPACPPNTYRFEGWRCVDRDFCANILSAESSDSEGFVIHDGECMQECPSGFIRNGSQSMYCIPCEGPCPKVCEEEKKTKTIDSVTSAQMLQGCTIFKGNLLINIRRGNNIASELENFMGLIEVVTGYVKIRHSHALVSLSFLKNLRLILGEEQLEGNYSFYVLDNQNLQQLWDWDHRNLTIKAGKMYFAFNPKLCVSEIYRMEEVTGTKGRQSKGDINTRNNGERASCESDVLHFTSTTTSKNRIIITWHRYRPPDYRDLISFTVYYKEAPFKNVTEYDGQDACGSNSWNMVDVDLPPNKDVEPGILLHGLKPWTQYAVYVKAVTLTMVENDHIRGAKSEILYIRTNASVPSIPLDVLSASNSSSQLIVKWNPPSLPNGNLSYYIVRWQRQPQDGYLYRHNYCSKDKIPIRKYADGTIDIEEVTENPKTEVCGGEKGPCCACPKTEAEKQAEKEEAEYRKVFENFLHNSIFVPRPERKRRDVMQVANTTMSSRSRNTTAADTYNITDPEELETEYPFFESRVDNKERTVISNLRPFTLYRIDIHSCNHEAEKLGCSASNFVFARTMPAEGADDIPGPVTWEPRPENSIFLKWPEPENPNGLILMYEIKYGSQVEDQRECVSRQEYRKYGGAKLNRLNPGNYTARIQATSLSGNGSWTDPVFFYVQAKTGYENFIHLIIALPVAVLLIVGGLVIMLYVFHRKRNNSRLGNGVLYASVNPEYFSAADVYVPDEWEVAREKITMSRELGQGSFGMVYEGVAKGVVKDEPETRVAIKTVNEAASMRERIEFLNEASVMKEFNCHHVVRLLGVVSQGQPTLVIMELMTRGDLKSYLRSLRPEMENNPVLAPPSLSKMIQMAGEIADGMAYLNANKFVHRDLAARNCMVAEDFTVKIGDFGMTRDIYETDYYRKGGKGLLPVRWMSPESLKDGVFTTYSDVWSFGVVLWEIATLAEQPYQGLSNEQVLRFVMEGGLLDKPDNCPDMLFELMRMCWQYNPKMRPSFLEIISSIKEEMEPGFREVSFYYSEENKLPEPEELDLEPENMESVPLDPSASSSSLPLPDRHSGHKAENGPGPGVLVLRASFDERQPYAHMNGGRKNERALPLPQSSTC
Method: (§1) Cell lines were routinely cultured no greater than 20 passages. Flow cyotometric analysis of antibody binding to human cancer cells. Cells were lifted with cell dissociation buffer (Gibco catalog #13151-014), counted, washed and adjusted to 5×10⁶ cells/ml. Cells (2.5×10⁵; 50 uL) were added to each well of a 96-well round bottom plate (Costar #3799). Purified antibodies were tested at a starting concentration of 300 nM with serial half-log dilutions in FACS buffer. FACS buffer used throughout the assay was PBS (without Ca++/Mg++) containing 5% FBS. Samples were incubated on ice for 30 minutes, washed 3× with 200 uL FACS buffer and centrifuged at 1200 rpm for 3 minutes at 4° C. C2B8 (rituximab, IgG1) was used as a negative control. […] Samples were incubated for an additional 30 minutes on ice, shielded from light. Cells were washed as described above and resuspended in 100 μl FACS buffer containing propidium iodide (PI) for dead cell exclusion (BD Pharmingen, catalog# 51-66211E or 556463; use at 1:500 final in FACS buffer). Samples were run in triplicate using the FACSArray flow cytometer (Becton Dickinson) with 5000 live events collected per sample. Data analysis was performed using the GraphPad Prism version 5.0 software (GraphPad Software Inc., 11452 El Camino Real #215, San Diego, Calif. 92130). Results. […]

[2] = target: T2, human IGF-1R(1-902)-His10 (human, UniProt P08069 31-932); experiment: SPR competition (Biacore 3000): soluble antibody titrated into 40 nM hIGF-1R-His, mixture injected over immobilized M13-C06
T2 construct: Bought from R&D Systems (305-GR-050); also called hIGF-1R-His10; hIGF-1R-His
T2 sequence (P08069 other isoform, or with tags, fused parts or gaps): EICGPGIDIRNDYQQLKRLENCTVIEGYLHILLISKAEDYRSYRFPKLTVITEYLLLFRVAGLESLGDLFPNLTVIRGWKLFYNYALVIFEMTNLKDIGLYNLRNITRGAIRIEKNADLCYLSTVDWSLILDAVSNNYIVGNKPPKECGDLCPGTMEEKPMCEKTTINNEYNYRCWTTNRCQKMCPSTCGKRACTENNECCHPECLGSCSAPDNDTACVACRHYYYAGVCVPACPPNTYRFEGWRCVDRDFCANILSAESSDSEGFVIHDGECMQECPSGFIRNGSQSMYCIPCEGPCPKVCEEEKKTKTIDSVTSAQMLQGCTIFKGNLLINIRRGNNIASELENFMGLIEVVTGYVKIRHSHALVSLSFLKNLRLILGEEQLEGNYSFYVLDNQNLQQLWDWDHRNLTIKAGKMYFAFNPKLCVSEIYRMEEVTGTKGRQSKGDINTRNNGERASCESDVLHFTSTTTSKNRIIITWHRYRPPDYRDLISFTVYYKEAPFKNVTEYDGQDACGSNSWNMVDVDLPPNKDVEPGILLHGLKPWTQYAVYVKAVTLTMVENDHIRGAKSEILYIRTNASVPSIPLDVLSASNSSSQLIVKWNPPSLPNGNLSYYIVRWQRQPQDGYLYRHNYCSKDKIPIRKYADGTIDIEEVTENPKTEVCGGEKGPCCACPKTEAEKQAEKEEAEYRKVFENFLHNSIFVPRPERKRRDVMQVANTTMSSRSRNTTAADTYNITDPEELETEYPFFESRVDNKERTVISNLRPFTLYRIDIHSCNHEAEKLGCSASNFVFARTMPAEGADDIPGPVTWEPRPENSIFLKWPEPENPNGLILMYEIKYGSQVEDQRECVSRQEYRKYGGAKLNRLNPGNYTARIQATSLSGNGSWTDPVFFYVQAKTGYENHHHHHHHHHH
Method: Regeneration was achieved by three 10 μL injections of 0.1 M glycine, pH 2.0. 100% hIGF-1R-His binding to each antibody was determined by the signal above the baseline under mass transport-limiting conditions 60 seconds into the injection.

human IGF-1R(1-903)-Fc [3] = target: T3, human IGF-1R(1-903)-Fc (human, UniProt P08069 31-933); experiment: ELISA, blocking of 320 nM IGF-1 His on biotinylated hIGF-1R-Fc
T3 construct: also called hIGF-1R-Fc; SDWT; not shown: human IgG1 Fc, C-terminal tag
T3 sequence (P08069 31-933): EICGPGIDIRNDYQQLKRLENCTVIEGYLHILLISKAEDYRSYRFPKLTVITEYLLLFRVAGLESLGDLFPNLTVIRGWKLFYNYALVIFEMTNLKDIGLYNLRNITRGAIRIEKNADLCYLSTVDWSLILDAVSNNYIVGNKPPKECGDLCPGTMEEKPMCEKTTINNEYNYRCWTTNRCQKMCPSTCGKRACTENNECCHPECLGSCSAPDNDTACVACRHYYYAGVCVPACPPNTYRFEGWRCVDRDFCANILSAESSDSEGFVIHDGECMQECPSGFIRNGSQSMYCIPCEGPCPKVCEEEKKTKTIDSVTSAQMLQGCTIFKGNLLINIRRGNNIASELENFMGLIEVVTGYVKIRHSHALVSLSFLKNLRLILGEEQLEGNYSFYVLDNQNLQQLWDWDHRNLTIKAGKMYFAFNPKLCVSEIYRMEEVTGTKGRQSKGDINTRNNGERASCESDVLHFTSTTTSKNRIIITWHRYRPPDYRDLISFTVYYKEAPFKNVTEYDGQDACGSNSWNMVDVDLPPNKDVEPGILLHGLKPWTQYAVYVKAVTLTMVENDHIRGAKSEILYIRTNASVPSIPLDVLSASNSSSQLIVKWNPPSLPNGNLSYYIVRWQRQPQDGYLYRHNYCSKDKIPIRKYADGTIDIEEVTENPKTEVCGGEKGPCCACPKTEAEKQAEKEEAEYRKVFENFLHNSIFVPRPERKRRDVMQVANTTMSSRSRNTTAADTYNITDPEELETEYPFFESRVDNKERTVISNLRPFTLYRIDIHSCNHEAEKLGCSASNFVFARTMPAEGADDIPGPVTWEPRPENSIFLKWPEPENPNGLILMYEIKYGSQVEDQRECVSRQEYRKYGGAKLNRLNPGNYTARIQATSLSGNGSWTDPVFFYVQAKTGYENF
Method: hIGF-1R-Fc was biotinylated using EZ-Link Sulfo-NHS-LC-Biotin according to the protocol provided by the manufacturer (Pierce Cat. No. 21335). Biotinylated human IGF-1R Fc (NB12453-9) at 5 μg/ml was added to the wells of SigmaScreen streptavidin-coated 96-well plates (Sigma, Cat. No. M5432-5EA) at 100 μL/well and incubated overnight at 2-8° C. The plates were then washed four times with 200 μL/well PBST. […] The dilutions were added to the plates in duplicate at 100 μL/well and the plates were incubated at RT for 1 hour. The plates were then washed four times with 200 μL/well PBST. An HRP-conjugated anti-Histag antibody (Penta-His HRP Conjugate, QIAGEN, Cat. No. 1014992) was diluted 1:1000 in PBST and added to plates at 100 μL/well, and the plates were incubated at RT for one hour. The plates were then washed four times with 200 μL/well PBST. SureBlue Reserve TMB Microwell Peroxidase Substrate (KPL, Cat. No. 53-00-01) was added to plates at 100 μL/well followed by 1% phosphoric acid at 100 μL/well once the desired reaction was observed. The absorbance of each well was determined at 450 nm, and the results were normalized and plotted against the log of antibody concentration.

[4] = target: T1, human IGF-1R on H322M non-small cell …; experiment: flow cytometry on H322M cells, anti-human Fc PE secondary (FIG. 55B)
Method: as §1

human IGF-1R(1-903)-Fc [5] = target: T3, human IGF-1R(1-903)-Fc; experiment: IGF-1 blocking ELISA at 1280 nM IGF-1 His on biotinylated hIGF-1R-Fc
Method: The dilutions were added to the plates in duplicate at 100 μL/well and the plates were incubated at RT for 1 hour. The plates were then washed four times with 200 μL/well PBST. An HRP-conjugated anti-Histag antibody (Penta-His HRP Conjugate, QIAGEN, Cat. No. 1014992) was diluted 1:1000 in PBST and added to plates at 100 μL/well, and the plates were incubated at RT for one hour. The plates were then washed four times with 200 μL/well PBST. SureBlue Reserve TMB Microwell Peroxidase Substrate (KPL, Cat. No. 53-00-01) was added to plates at 100 μL/well followed by 1% phosphoric acid at 100 μL/well once the desired reaction was observed. The absorbance of each well was determined at 450 nm, and the results were normalized and plotted against the log of antibody concentration.
Ligand Blocking Properties.

[6] = target: T1, human IGF-1R on H322M non-small cell …; experiment: flow cytometry on H322M cells
Method: as §1

[7] = target: T4, hIGF-1R-Fc mutant SD113 (E570A, I571T) (human, UniProt P08069 31-933); experiment: SPR, Fab over captured mutant
T4 construct: not shown: human IgG1 Fc, C-terminal tag
T4 sequence (P08069 31-933 E600A/I601T): as the sequence (P08069 31-933) above, with E570A, I571T counted along it
Method: (§2) Surface plasmon resonance (SPR) experiments were performed on a Biacore 3000 instrument set to 25° C. […] The antibody sensorchip surfaces were prepared by injecting each antibody (diluted 100 μg/mL in 10 mM Acetate, pH 4.0) over EDC/NHS-activated sensorchip surfaces according to the standard protocol of the manufacturer. […] Both hIGF-1R-Fc and mIGF-1R-Fc proteins oligomerize due to the incorporation of two separate homodimeric regions (IGF-1R and IgG1-Fc). […] After, completion of the receptor-Fc loading step, flow rates were elevated to 5 μl/min. […] Dissociation was measured for 7 minutes after the antibody injections were complete. Finally, the flow rate was elevated to 30 μL/min and the chip surfaces were regenerated by 2×10 μL injections of 0.1 M glycine, pH 2.

[8] = target: T5, hIGF-1R-Fc mutant SD104 (H464A) (human, UniProt P08069 31-933); experiment: SPR, Fab over captured mutant
T5 construct: not shown: human IgG1 Fc, C-terminal tag
T5 sequence (P08069 31-933 H494A): as the sequence (P08069 31-933) above, with H464A counted along it
Method: as §2

[9] = target: T6, hIGF-1R-Fc mutant SD103 (D461A, V462T) (human, UniProt P08069 31-933); experiment: SPR, Fab over captured mutant
T6 construct: not shown: human IgG1 Fc, C-terminal tag
T6 sequence (P08069 31-933 D491A/V492T): as the sequence (P08069 31-933) above, with D461A, V462T counted along it
Method: as §2

Binder	EC50 [1]	IC50 (read off the curve) [2]	IC50 (human IGF-1R(1-903)-Fc [3])	EC50 [4]	IC50 (read off the curve) (human IGF-1R(1-903)-Fc [5])	EC50 [6]	binding result [7]	binding result [8]	binding result [9]
B1	0.2 nM	~30 nM	1.3 nM	0.25 nM	~1 nM	< 1 nM			
B2							no binding (tested: up to 10 nM Fab)	no binding (tested: up to 10 nM Fab)	no binding (tested: up to 10 nM Fab)
